Test results published in patent publication US20100260765A1 (AstraZeneca / MedImmune, published 2010).

Tests used:
Assay in all cases: cell-based or functional assay
[1] = target: T1, KDR (human, UniProt P35968 20-1356)
[2] = target: T1, KDR; remark: listed apart in the source
[3] = target: T1, KDR; remark: listed apart in the source
[4] = target: T1, KDR; remark: listed apart in the source
[5] = target: T1, KDR; remark: listed apart in the source

T1 sequence (P35968 20-1356): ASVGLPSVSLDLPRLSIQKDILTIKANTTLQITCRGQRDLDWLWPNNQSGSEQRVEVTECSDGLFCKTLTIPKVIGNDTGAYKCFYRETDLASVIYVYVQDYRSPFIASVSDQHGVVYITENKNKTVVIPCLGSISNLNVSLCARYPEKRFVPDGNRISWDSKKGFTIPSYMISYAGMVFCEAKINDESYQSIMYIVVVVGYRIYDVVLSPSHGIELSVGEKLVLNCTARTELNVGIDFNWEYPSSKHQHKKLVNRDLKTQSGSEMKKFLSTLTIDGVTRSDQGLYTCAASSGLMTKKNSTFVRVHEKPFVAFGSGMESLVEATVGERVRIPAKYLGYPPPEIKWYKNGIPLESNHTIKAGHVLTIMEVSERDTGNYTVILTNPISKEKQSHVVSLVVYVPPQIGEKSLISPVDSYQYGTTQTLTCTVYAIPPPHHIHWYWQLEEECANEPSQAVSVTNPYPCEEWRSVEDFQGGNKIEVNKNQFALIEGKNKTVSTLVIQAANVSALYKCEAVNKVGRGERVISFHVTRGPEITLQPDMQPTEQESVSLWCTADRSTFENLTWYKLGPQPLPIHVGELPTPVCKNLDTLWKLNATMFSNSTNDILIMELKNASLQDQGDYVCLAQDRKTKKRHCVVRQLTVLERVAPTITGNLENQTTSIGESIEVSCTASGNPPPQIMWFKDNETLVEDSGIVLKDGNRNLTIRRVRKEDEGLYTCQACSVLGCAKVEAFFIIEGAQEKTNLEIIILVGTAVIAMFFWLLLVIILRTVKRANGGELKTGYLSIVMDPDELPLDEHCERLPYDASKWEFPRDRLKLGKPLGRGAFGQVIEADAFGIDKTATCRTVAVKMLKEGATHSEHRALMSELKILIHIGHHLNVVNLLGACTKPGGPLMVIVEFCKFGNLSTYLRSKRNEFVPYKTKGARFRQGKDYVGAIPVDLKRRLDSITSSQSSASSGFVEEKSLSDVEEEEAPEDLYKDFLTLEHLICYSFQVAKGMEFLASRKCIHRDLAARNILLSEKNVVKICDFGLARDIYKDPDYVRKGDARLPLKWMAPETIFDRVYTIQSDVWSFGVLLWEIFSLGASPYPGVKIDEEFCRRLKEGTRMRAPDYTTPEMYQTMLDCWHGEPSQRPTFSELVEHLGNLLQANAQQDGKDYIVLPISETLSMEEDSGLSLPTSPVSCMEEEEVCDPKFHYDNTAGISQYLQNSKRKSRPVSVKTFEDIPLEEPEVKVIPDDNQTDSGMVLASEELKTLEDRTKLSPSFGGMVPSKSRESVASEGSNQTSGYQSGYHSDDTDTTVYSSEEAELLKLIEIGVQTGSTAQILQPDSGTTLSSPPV

Binder	Activity at 133 nM Antibody Concentration (% Survival Inhibition), Average [1] [%]	Activity at 133 nM Antibody Concentration (% Survival Inhibition), N = 1 [1] [%]	Activity at 133 nM Antibody Concentration (% Survival Inhibition), N = 2 [1] [%]	% of Max VEGF KDR pTyr Activity (at 133 nM antibody concentration), Average [2] [%]	% of Max VEGF KDR pTyr Activity (at 133 nM antibody concentration), N = 1 [2] [%]	% of Max VEGF KDR pTyr Activity (at 133 nM antibody concentration), N = 2 [2] [%]	Activity at 133 nM (% Inhibition), 24-hour Pre-incubation at 37° C., Average [3] [%]	Activity at 133 nM (% Inhibition), 24-hour Pre-incubation at 37° C., N = 1 [3] [%]	Activity at 133 nM (% Inhibition), 24-hour Pre-incubation at 37° C., N = 2 [3] [%]	% Inhibition of VEGF165-mediated 6-keto Prostaglandin F1α release at 133 nM Antibody Concentration, Average [4] [%]	% Inhibition of VEGF165-mediated 6-keto Prostaglandin F1α release at 133 nM Antibody Concentration, N = 1 [4] [%]	% Inhibition of VEGF165-mediated 6-keto Prostaglandin F1α release at 133 nM Antibody Concentration, N = 2 [4] [%]	Activity at 133 nM (% Inhibition), 1-hour Pre-incubation at 4° C., Average [5] [%]	Activity at 133 nM (% Inhibition), 1-hour Pre-incubation at 4° C., N = 1 [5] [%]	Activity at 133 nM (% Inhibition), 1-hour Pre-incubation at 4° C., N = 2 [5] [%]
29A3 (antibody, V domains shown) VH: QVQLQESGPGLVKPSETLSLTCTVSGGSISSYFWSWIRQPAGKGLEWIGRIYFSGRTNYNPSLKSRVTMSVETSKNQFSLKLNSVTAADTAVYYCARDGGWNYDVAFDYWGQGTLVTVSS VL: QAVLTQPSSLSASPGASASLTCTLRSGINVGTYRIYWYQQKPGSPPQYLLRYKSDSDQLQGSGVPSRFSGSKDASANAGILLISGLQSEDEADYYCMVWHSNTWVFGGGTKLTVL	-111	-65	-156	16	15	17	11	7	15	13	11	16	23	25	20
29H3 (antibody, V domains shown) VH: QVQLVQSGAEVKKPGASVKVSCKASGYTFTSYDINWVRQATGQGLEWMGWMNPNSGKTGYAQKFQGRVTMTRNTSINTAYMELSSLRSEDTAVYYCARGGYSNLGWFDPWGQGTLVTVSS VL: DIQMTQSPSSVSASVGDRVTITCRASQGISSWLVWYHQKPGKAPKLLIYGASSLQSGVPSRFSGSGSGTDFTLTISSLQPEDFATYYCQQANNFPFTFGPGTKVDIK	-70	-5	-136	16	20	11	19	1	36	18	14	22	50	45	55
30F6 (antibody, V domains shown) VH: QVQLVESGGGVVQPGRSLRLSCAASGFTFSTYGMHWVRQAPGKGLEWVAVIWYDGSNKYYADSVKGRFTISRDNSKNTLYLQMNSLRAEDTAVYYCACSYWNDDYYYGMDVWGQGTTVTVSS VL: DIQMTQSPSSLSASVGDRVIITCRASQNISSYLIWYQQKPGKAPNLLIHTTSSLQRGVPSRFSGSGSGTDFTLTISSLQPEDFATYYCQQSYSAPLTFGGGTKVEIK	82	91	74	13	14	13	55	60	51	79	68	89	84	84	85
21H6 (antibody, V domains shown) VH: QVQLVESGGGLVKPGGSLRLSCAASGFTFSDYYMSWIRQAPGKGLEWVSYISNSGITIYYADSVKGRFTISRDNAKNSLYLQMNSLRAGDTAVYYCAREEWYSSRWYRNFDYWGQGTLVTVSS VL: DIQMTQFSSSLSASVGDRVTITCRASQSISRYLNWYQQKPGKAPKLLIYAASSLQSGVPSRFNGSGSGTDFTLTISSLQPEDFATYYCQQSYSAPLTFGGGTKVEIK	91	105	77	11	10	12	27	35	19	100	104	96	74	74	75
32B2 (antibody, V domains shown) VH: EVQLLESGGGLVQPGGSLRLSCAASGFTFSNYAMSWVRQAPGKGLDWVSAISGRGGSTYYADSVKGRFTISRDNSKNTLFLLMNSLRAEDTAVYYCAKASGDDWGQGTLVTVSS VL: not shown	-21	-13	-29	11	12	10	49	38	61	6	3	9	29	25	33
30H10 (antibody, V domains shown) VH: EVQLLESGGGLVQPGGSLRLSCAASGFTFSNYAMSWVRQAPGKGLEWVSAISGSGGITYYADSVKGRFTISRDNSKNTLFLQMNSLRAEDTAVYYCAKASGDNWGQGTLVSVSS VL: not shown	-115	-84	-147	12	12	13	62	48	77	10	10	–	26	31	21
22B8 (antibody, V domains shown) VH: QLQLQESGPGLVKPSETLSLTCTVSGGSISSRYYYWGWVRQPPGKGLEWIGTIYYSGHTYYNPSLKTRVTISVDTSKNQFSLKLISVTAADTAVYYCATQQLVLYYFDFWGQGTLVTVSS VL: EIVLTQSPGTLSLSPGERAALSCRASQSISSSYLAWYQQRPGQAPRLLIYGASSRATGIPDRFNGSGSGTDFTLTISRLEPEDFAVYYCQQFGSSITFGQGTRLEIK	88	88	87	7	9	5	99	82	115	72	67	76	76	75	76
